Experimental findings from patent CN1803842A (UNIV NANJING MEDICAL, dated 2006) are described below.

In one assay the target is T1, Aβ1-42 (UniProt P05067 672-713).
T1 construct: domain: Aβ1-42; Sample loaded on the Tricine SDS-PAGE gel for the Western blot (20 μg per lane); also called Aβ 42; 合成的Aβ多肽
Kind of assay: Western blot, 20 μg Aβ1-42 per lane on PVDF, purified scFv 1:5, detection with anti-c-myc antibody and HRP goat anti-mouse IgG. A general note: A western blot detects proteins with antibodies after separation by electrophoresis.

For a further assay, the target named is T2, BSA (UniProt P02769 25-607).
T2 construct: Control protein in the Western blot
Kind of assay: Western blot, 20 μg BSA per lane, purified scFv 1:5, detection with anti-c-myc antibody.

B1: E3单链抗体 (抗Aβ可溶性单链抗体) (scFv)
scFv: QVQLQESGPGLVKPSETLSLTCAVSGYSISSGYYWGWIRQPPGKGLEWIGSIYHSGSTYYNPSLKSRVTISVDTSKNQFSLKLSSVTAADTAVYYCARDLGSSVSWGQGTLVTVSSGGGGSGGGGSGGSALDIQMTQSPSSLSASVGDRVTISCRMSQGISNYLAWYQQKPGKVPKLLIYAASTLQSGVPSRFSGSGSGTDFTLTISSLQPEDVATYYCQKYNSALVTFGQGTKLEIKR
notes: Soluble scFv expressed in E. coli HB2151, purified on His-Trap, about 31 kD; also called E3scFv; E3 scFv; not shown: C-terminal tags of the pHEN2 vector, implied by His-Trap purification and detect
Consider B1, for which the binding result in the assay with Aβ1-42 is “binds”; with BSA it was “no binding”.
